Data published in paper PMC8276246, “Unlimited Cooperativity of Betatectivirus SSB, a Novel DNA Binding Protein Related to an Atypical Group of SSBs From Protein-Primed Replicating Bacterial Viruses”.

Assays:
[1] = test system: B35SSB (Bacillus phage Bam35 (betatectivirus)); assay: EMSA; conditions: EMSA: 50 mM Tris-HCl pH 7.5, 50 mM NaCl, 1 mM DTT, 4% glycerol, 0.1 mg/ml BSA, 0.05% Tween 20, 1 mM EDTA, 10 min at 4 C, 2 nM labeled probe
[2] = molecular target: EcoSSB (Escherichia coli, UniProt P0AGE0 1-178); assay: EMSA; 1 uM protein; EMSA: 50 mM Tris-HCl pH 7.5, 50 mM NaCl, 1 mM DTT, 4% glycerol, 0.1 mg/ml BSA, 0.05% Tween 20, 1 mM EDTA, 10 min at 4 C; 2 nM labeled probe; conditions: chain copies: 4; label: 5' 32P
[3] = molecular target: T1, Φ29 terminal protein (Φ29TP) (Bacillus phage Φ29, UniProt P03681 1-266); assay: EMSA; 20 nM protein; EMSA: 50 mM Tris-HCl pH 7.5, 50 mM NaCl, 1 mM DTT, 4% glycerol, 0.1 mg/ml BSA, 0.05% Tween 20, 1 mM EDTA, 10 min at 4 C; 2 nM labeled probe; conditions: label: 5' 32P on strand 1; blunt
T1 sequence: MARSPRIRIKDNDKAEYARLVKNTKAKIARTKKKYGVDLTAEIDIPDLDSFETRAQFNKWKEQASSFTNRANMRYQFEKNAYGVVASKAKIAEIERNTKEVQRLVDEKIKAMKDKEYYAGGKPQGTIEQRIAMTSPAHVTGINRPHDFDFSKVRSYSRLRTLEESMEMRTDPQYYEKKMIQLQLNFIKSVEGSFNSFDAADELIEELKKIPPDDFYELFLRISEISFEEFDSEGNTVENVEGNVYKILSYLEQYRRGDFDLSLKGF

EcoSSB, sequence (P0AGE0 whole entry): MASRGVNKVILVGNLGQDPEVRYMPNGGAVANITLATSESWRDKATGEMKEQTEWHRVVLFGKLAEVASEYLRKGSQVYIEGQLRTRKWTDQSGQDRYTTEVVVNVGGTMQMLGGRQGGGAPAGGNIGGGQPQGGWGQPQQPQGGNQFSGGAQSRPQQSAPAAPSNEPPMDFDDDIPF

Q: Which binding signal ([1]; 250 nM protein) does the source give for “GGCCCATATGTACCCATACGACGTCCCAGACTACGCTGGGACGGGGAGCGGGGCCAGTAAACTACTGACTGCGCAAGAGG [80-mer]” here?
A: The binding signal was 70 % bound.

Q: With “GAAAAUAAAAAUAAACUGGACAAUUAAGGAUCCUGUACAAGUCGACGCGG [RNA-50mer]” as the molecule, how does the binding signal ([1]; 5 uM protein) read?
A: The binding signal was 10 % bound.

Q: “ACTGGCCGTCGTTCTATTGTACTCACTGTGATC [33-mer]” was tested. Which binding signal ([1]; 500 nM protein (25% bound at 250 nM)) did it give?
A: The binding signal was 50 % bound.

Q: Which binding signal ([1]; 1 uM protein, minor smear) does the source give for GATCACAGTGAGTAC [15-mer] here?
A: The binding signal was less than 10 % bound.

Q: Does GAAAATAAAAATAAACTGGACAATTAAGGATCCTGTACAAGTCGACGCGG (ssDNA) [50-mer] bind [2]?
A: Result: binds

B1: 50-mer dsDNA (dsDNA)
DNA 1: GAAAATAAAAATAAACTGGACAATTAAGGATCCTGTACAAGTCGACGCGG
DNA 2: CCGCGTCGACTTGTACAGGATCCTTAATTGTCCAGTTTATTTTTATTTTC
Q: Does B1 bind [3]?
A: Result: binds

Q: Does GAAAAUAAAAAUAAACUGGACAAUUAAGGAUCCUGUACAAGUCGACGCGG (ssRNA) [RNA-50mer] bind [2]?
A: Result: binds
